± gives the standard deviation of the averaged measurements.
B1: library; numbered along this chain (parent)
chain: MAELLLGVNIDHIATLRNARGTAYPDPVQAAFIAEQAGADGITVHLREDRRHITDRDVRILRQTLDTRMNLEMAVTEEMLAIAVETKPHFCCLVPEKRQEVTTEGGLDVAGQRDKMRDACKRLADAGIQVSLFIDADEEQIKAAAEVGAPFIEIHTGCYADAKTDAEQAQELARIAKAATFAASLGLKVNAGHGLTYHNVKAIAAIPEMHELNIGHAIIGRAVMTGLKDAVAEMKRLMLEARG

Variants of: B1
Experiment: pyridoxine titer in culture supernatant of strain expressing the PdxJ variant; higher = more PN produced (higher in vivo pathway activity of the PdxJ variant)
Settings: host strain: E. coli LL006; 48 h; temperature: 37 °C; FM1.4
Protocol: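 Rosetta-designed single to quadruple mutants of E. coli PdxJ (PNP synthase) were expressed from pRSFDuet-1 in the engineered chassis E. coli LL006 (MG1655 ΔpdxH::pdxST, pta::Eme_pdxP). Strains were grown in 24 deep-well plates in 2 mL FM1.4 glycerol medium at 37 °C and 800 rpm for 48 h. Extracellular pyridoxine (PN) titer was quantified by HPLC with fluorescence detection; two biological replicates, with the WT pdxJ strain (LL137, about 0.5 mg/L) as control.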

Variant	pyridoxine titer [mg/L]
I13V E100I E104T T196C	1.25 ± 0.031
A23T I218L I219V	5.75 ± 0.16
A23T V44I L212I I219W	3.27 ± 0.26
E104T A217V	1.12 ± 0.014
E100I L212I	0.67 ± 0.47
I13V E104T T196C I219C	0.274 ± 0.01
A23T I154L	1.23 ± 0.099
A23T V44I T196R L212I	3.37 ± 1.5
A14I E104T T196C	1.69 ± 0.75
E100M V101L T196C	2.12 ± 0.38
L212I A217V	0.69 ± 0.042
T22V	1.29 ± 0.091
G194C L195I	0.26
A23T V44I L212I	6.75 ± 0.099
L195I T196C	0.41 ± 0.014
A23T	0.981 ± 0.014
A23T E104T L212I	3.44 ± 1.2
A23T H155I L212I	0.63 ± 0.014
I10L I13V H155I L212I	1.66 ± 0.076
A19Q G21M T103L	0.49 ± 0.028
I13V T196C	2.15 ± 0.18
I10L T22V	6.01 ± 0.81

Variant	pyridoxine titer [mg/L]
V101L T196C L212I	7.33 ± 0.48
Y24I E100I	0.81 ± 0.028
A23T V44I T196V L212I	1.53 ± 0.17
I10L T103L	1.81 ± 0.042
T15I A23T	0.3 ± 0.014
V44I	0.719 ± 0.33
I10L T22V A23T	6.93 ± 0.49
I10L T22V A23W E104T	2.06 ± 0.39
A19Q E104T	0.72 ± 0.028
E104T G194C T196V I218L	6.11 ± 7.1
V44C G194C N213I I218L	2.07 ± 0.077
A23T I218L	1.04 ± 0.45
A23T A217V	1.12 ± 0.18
T196C L212I	0.66 ± 0.014
I13V T103L L212I	0.43 ± 0.18
I13V V101L E104T T196C	1.04 ± 0.83
T103L L212I	3 ± 0.58
I10L V101L E104T T196V	6.81 ± 0.15
L212I	4.92 ± 3.9
I10L T22V E104T I218M	0.757 ± 0.11
E104T I219G	2.75 ± 3.3
E104T G194C I218L I219L	4.45 ± 0.41

Variant	pyridoxine titer [mg/L]
G21M T196C	0.68 ± 0.042
E104T	0.334 ± 0.033
I10L V101L E104T G194Q	7.61 ± 0.4
I13V T15V L212I	0.41 ± 0.13
A19C A23T L212I	3.68 ± 0.73
I10L I218L	2.4 ± 0.35
H155I N213I	0.26
T15I	0.373 ± 0.14
V101L	1.19 ± 0.086
E100I V101L L212I	0.86 ± 0.3
A23T E100I I219G	8.72 ± 0.52
A19Q V44I	0.875 ± 0.47
V101L E104T L212I	0.49 ± 0.028
A23T G194C T196F I219G	0.237 ± 0.011
V101L L212I	0.72 ± 0.042
A19R A23T E100I I219G	0.244 ± 0.041
A23T E100I G194Q I219G	2.67 ± 0.14
V101L E104T A217V	1.17 ± 0.057
E104T I218L	0.75 ± 0.085
Y24I	0.0833 ± 0.01
I10L L212I	1.64 ± 0.24
I10L T22V A23T I218M	0.2811 ± 0.0013

Variant	pyridoxine titer [mg/L]
E104T G194C I218L	9.71 ± 0.22
E100I	0.906 ± 0.17
G21M	0.428 ± 0.049
A19Q G21M E100I	0.47 ± 0.23
I13V H155I L212I	0.81 ± 0.27
A23T L212I	1.09 ± 0.79
H12M A23T	0.58 ± 0.014
I13V A217V	1.81 ± 0.057
I10L I13V L212I	3.48 ± 1.7
I10L V101L E104T I219C	0.874 ± 0.68
I10L V101L E104T I219M	0.553 ± 0.14
I10L V101L E104T I219W	1.66 ± 0.26
T22V L212I	0.55 ± 0.13
T15I T196C	1.08 ± 0.071
I10L H155I I218L	0.28 ± 0.028
T196C	1.21 ± 0.38
I13V T103L E104T T196C	0.233 ± 0.009
I10L V101L E104T I218M	0
A217V	3.92 ± 2
T103L	3.2 ± 0.14
H155I L212I	0.36

— the supplement of paper PMC10471632, “Protein engineering and iterative multimodule optimization for vitamin B6 production in Escherichia coli” (Nature Communications, 2023)
